PMC5960627
Like-named read-outs stand apart in the source and are kept apart here.

How the values were obtained:
Test in all cases: other fluorescence titration
[1] = molecular target: BSAT1R_(125-141), FRET biosensor with AT1R a.a. 125-141 (SMD2) between EYFPc and ECFP (human)
[2] = molecular target: BSAT1R_(215-242), FRET biosensor with AT1R a.a. 215-242 (entire SMD3) between EYFPc and ECFP (human)
[3] = molecular target: BSAT1R_(215-232), FRET biosensor with AT1R a.a. 215-232 (part of SMD3) between EYFPc and ECFP (human)
[4] = molecular target: BSAT1R_(215-242mut), FRET biosensor with mutant AT1R a.a. 215-242 (SMD3) between EYFPc and ECFP (human)
[5] = molecular target: BSAT1R_(309-327mut), FRET biosensor with mutant AT1R a.a. 309-327 (SMD4JM) between EYFPc and ECFP (human)
[6] = molecular target: BSAT1R_(125-141mut), FRET biosensor with mutant AT1R a.a. 125-141 (SMD2) between EYFPc and ECFP (human)
[7] = molecular target: BSAT1R_(309-327), FRET biosensor with AT1R a.a. 309-327 (SMD4JM) between EYFPc and ECFP (human)
[8] = molecular target: BSAT1R_(309-327), FRET biosensor with AT1R a.a. 309-327 (SMD4JM) between EYFPc and ECFP (human); remark: listed apart in the source

Chain of BSAT1R_(215-242), FRET biosensor with AT1R a.a. 215-242 (entire SMD3) between EYFPc and ECFP (human) (P30556 215-242): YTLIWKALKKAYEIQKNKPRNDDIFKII

EC50(Ca2+) of the interaction [1]: 4100 nM | EC50(Ca2+) of the interaction [2]: 150 nM | EC50(Ca2+) of the interaction [3]: 300 nM | EC50(Ca2+) of the interaction [4]: 1490 nM | EC50(Ca2+) of the interaction, species Sp1mut [5]: 770 nM | EC50(Ca2+) of the interaction, species Sp2mut [5]: 9600 nM | EC50(Ca2+) of the interaction [6]: 17600 nM | EC50(Ca2+) of the interaction, species Sp1 [7]: 310 nM | EC50(Ca2+) of the interaction, species Sp2 [7]: 3170 nM | EC50(Ca2+) of the interaction, species Sp2 [8]: 3180 nM
Substance: Calmodulin (from UniProt P0DP23 1-149) (natural protein)
